Test results from patent publication US20260022175A1 (Chugai, published 2026).
Where a chain is given by its changes, count along the chain named.

What was measured:
human FcRn [1] = molecular target: T1, human FcRn (human, UniProt P55899 24-290; P61769 21-119); test: SPR Biacore T200, captured Ab, pH 6.0, steady state
T1 construct: Prepared by the method of WO 2010/107110; also called hFcRn

[2] = molecular target: T2, human FcγRIIb extracellular domain with C-terminal His-tag (human, UniProt P31994 43-217); test: SPR; binding amount divided by that of 04H1389-G1m/04L1305-k0MT
T2 construct: extracellular domain; also called hFcγR IIb
T2 sequence (looked up): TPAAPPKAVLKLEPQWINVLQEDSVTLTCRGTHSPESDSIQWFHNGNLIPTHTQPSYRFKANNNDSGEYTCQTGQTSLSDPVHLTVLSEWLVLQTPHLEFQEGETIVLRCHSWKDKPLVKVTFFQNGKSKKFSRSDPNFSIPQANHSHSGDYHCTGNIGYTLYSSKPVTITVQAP

[3] = molecular target: T3, human FcγRIIIa V allotype extracellular domain with C-terminal His-tag (human, UniProt P08637 17-208); test: SPR Biacore T200, captured Ab, pH 7.4, steady state model
T3 construct: extracellular domain; also called hFcγR IIIa V

[4] = molecular target: T4, human FcγRIa extracellular domain with C-terminal His-tag (human, UniProt P12314 16-292); test: SPR Biacore T200, captured Ab, pH 7.4
T4 construct: extracellular domain; also called hFcγR Ia; hFcγRIa

[5] = molecular target: T5, human FcγRIIIa F allotype extracellular domain with C-terminal His-tag (human, UniProt P08637 17-208); test: SPR Biacore T200, captured Ab, pH 7.4
T5 construct: extracellular domain; also called hFcγR IIIa F

[6] = molecular target: T6, human FcγRIIa R allotype extracellular domain with C-terminal His-tag (human, UniProt P12318 34-217); test: SPR Biacore T200, captured Ab, pH 7.4
T6 construct: extracellular domain; also called hFcγR IIa R
T6 sequence (looked up): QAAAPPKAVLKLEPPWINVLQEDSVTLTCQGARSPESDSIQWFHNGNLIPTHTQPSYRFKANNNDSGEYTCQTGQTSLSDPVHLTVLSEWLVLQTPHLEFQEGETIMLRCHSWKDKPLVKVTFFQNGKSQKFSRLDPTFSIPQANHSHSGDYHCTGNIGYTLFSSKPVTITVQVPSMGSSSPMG

[7] = molecular target: T7, human FcγRIIa H allotype extracellular domain with C-terminal His-tag (human, UniProt P12318 34-217); test: SPR Biacore T200, captured Ab, pH 7.4
T7 construct: extracellular domain; also called hFcγR IIa H
T7 sequence (looked up): T6 sequence (looked up) with R134H

[8] = molecular target: T2, human FcγRIIb extracellular domain with …; test: SPR; FcγRIIb bound amount per unit captured Ab
[9] = molecular target: T4, human FcγRIa extracellular domain with …; test: SPR; KD of 04H1389-G1m/04L1305-k0MT divided by KD of variant
[10] = molecular target: T3, human FcγRIIIa V allotype extracellular …; test: as above
human FcRn [11] = molecular target: T1, human FcRn; test: as above
[12] = molecular target: T5, human FcγRIIIa F allotype extracellular …; test: as above
[13] = molecular target: T6, human FcγRIIa R allotype extracellular …; test: as above
[14] = molecular target: T7, human FcγRIIa H allotype extracellular …; test: as above

T3 sequence (P08637 17-208 F176V): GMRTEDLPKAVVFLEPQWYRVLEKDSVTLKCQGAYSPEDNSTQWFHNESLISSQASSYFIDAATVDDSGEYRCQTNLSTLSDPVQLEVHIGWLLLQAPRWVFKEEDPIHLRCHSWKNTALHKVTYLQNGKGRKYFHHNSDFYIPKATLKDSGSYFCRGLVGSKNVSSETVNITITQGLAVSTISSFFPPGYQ
T5 sequence (P08637 17-208): as the sequence (P08637 17-208 F176V) above, with V160F counted along it
T4 sequence (P12314 16-292): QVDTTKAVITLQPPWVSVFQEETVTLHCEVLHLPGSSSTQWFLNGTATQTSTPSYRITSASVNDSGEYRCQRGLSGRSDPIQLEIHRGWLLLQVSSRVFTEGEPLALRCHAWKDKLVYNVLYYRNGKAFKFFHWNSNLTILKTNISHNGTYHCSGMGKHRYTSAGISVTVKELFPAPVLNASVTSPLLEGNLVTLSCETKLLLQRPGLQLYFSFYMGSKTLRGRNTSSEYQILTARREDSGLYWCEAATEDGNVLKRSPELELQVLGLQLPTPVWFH

Kd (human FcRn [1]): 1000 nM | Relative binding amount [2]: 1 | Kd [3]: 880 nM | Kd [4]: 0.069 nM | Kd [5]: 690 nM | Kd [6]: 1600 nM | Kd [7]: 1100 nM | Binding amount [8]: 0.011 | Relative value to KD between G1m and hFcγRs [9]: 1 | Relative value to KD between G1m and hFcγRs [10]: 1 | Relative value to KD between G1m and hFcRn (human FcRn [11]): 1 | Relative value to KD between G1m and hFcγRs [12]: 1 | Relative value to KD between G1m and hFcγRs [13]: 1 | Relative value to KD between G1m and hFcγRs [14]: 1
B1: 04H1389-G1m/04L1305-k0MT (antibody, human IgG1, kappa)
heavy: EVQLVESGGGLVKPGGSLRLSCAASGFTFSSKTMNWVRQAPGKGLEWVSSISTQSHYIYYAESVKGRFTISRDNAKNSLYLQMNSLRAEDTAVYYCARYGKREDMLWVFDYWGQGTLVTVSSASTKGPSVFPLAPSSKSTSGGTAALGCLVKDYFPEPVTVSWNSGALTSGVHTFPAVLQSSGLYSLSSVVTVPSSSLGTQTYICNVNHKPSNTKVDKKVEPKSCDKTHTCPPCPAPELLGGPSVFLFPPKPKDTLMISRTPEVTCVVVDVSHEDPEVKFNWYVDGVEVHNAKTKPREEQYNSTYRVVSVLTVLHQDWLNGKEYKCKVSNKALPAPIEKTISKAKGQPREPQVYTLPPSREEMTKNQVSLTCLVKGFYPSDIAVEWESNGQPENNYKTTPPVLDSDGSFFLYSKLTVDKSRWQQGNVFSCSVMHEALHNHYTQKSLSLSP
light: DIVMTQSPLSLPVTPGEPASISCDGPSTGVGDYNYVHWYQQKPGQAPRLLIYFTSKKPSGVPDRFSGSGSGTDFTLKISRVEAEDVGVYYCQTYAAPLGPMFGQGTKLEIKRTVAAPSVFIFPPSDEQLKSGTASVVCLLNNFYPREAKVQWKVDNALQSGNSQESVTEQDSKDSTYSLSSTLTLSKADYEKHKVYACEVTHQGLSSPVTKSFNRGEC
